Test results taken from patent US20060240487A1 (published 2006).

Columns and labels:
[1] = target: T1, biotinylated mature GDF-8 dimer (human, UniProt O14793 267-375, biotin on amine groups (lysine residues and/or amino termini); biotin:GDF-8 molar ratio between 0:1 and 3:1); test: ELISA standard curve, 4-parameter logistic fit; c = concentration resulting in signal at approximately midpoint between a and d; biotinylated GDF-8 on streptavidin plate
T1 construct: Captured on streptavidin-coated plates; also called Biotinylated GDF-8; biotinylated mature GDF-8 protein
Procedure: To detect MYO-029 in a human serum sample, an ELISA was performed as follows. Streptavidin was adsorbed by first adding streptavidin coating solution (100 μL/well) (5 μg/mL ImmunoPure streptavidin (Pierce) in 0.1 M Carbonate/Bicarbonate buffer, pH 9.6) to the wells of a 96 well plate (high binding flat-bottom microtiter) (Costar, Cat. No. 3590). The plate was covered with sealing film and incubated at 2-8° C. overnight. Using an automatic plate washer, the plate was washed four times (4×) with THST buffer (300 μL/well) (50 mM Tris-HCl, pH 8.0, containing 1.0 mM glycine, 0.5 M NaCl, and 0.05% v/v/ Tween 20® (J. T. Baker)), reversing the orientation of the plate after the second wash. To block, 200 μL of blocking buffer (1% bovine albumin (Sigma), 0.02% sodium azide in PBS (Dulbeccos)) was added to each well. The plate was covered with sealing film and incubated for 1-2 hours at room temperature and then washed as above. […]
A MYO-029 working calibrator solution was prepared of 1080 ng/mL MYO-029 in normal human serum (Bioreclamation, Inc.) The 1080 ng/mL stock was fist diluted 8-fold in assay buffer (THST buffer+4% nonfat dry milk), and then a series of 1.5 fold dilutions of the resulting 135 ng/mL standard were prepared in THST+4% nonfat dry milk+12.5% normal human serum to yield the calibration standard concentrations. […] For human serum, the minimum dilution determined was 1:8. […]

[2] = target: T1, biotinylated mature GDF-8 dimer; test: ELISA standard curve parameters of the rat serum experiment; biotinylated GDF-8 on streptavidin plate

B1: MYO-029 (antibody, V domains shown)
VH: QVQLVQSGAEVKKPGASVKVSCKASGYTFTSYYMHWVRQAPGQGLEWMGIINPSGGSTSYAQKFQGRVTMTRDTSTSTVYMELSSLRSEDTAVYYCARDENWGFDPWGQGTLVTVSS
VL: SYELTQPPSVSVSPGQTATITCSGHALGDKFVSWYQQGSGQSPVLVIYDDTQRPSGIPGRFSGSNSGNTATLTISGTQAMDEADYFCQAWDSSFVFGGGTKVTVL
notes: also called fully human antibody
**Q.** With B1 as the binder, how does the EC50 [1] read?
**A.** 0.0728 µg/mL

**Q.** And the EC50 [2]?
**A.** 0.0587 µg/mL
